Assay results: IntAct's records for PubMed 30026314

B1: Protein Wnt-7a (Homo sapiens), O00755 (parent)
chain: MNRKARRCLGHLFLSLGMVYLRIGGFSSVVALGASIICNKIPGLAPRQRAICQSRPDAIIVIGEGSQMGLDECQFQFRNGRWNCSALGERTVFGKELKVGSREAAFTYAIIAAGVAHAITAACTQGNLSDCGCDKEKQGQYHRDEGWKWGGCSADIRYGIGFAKVFVDAREIKQNARTLMNLHNNEAGRKILEENMKLECKCHGVSGSCTTKTCWTTLPQFRELGYVLKDKYNEAVHVEPVRASRNKRPTFLKIKKPLSYRKPMDTDLVYIEKSPNYCEEDPVTGSVGTQGRACNKTAPQASGCDLMCCGRGYNTHQYARVWQCNCKFHWCCYVKCNTCSERTEMYTCK
partner: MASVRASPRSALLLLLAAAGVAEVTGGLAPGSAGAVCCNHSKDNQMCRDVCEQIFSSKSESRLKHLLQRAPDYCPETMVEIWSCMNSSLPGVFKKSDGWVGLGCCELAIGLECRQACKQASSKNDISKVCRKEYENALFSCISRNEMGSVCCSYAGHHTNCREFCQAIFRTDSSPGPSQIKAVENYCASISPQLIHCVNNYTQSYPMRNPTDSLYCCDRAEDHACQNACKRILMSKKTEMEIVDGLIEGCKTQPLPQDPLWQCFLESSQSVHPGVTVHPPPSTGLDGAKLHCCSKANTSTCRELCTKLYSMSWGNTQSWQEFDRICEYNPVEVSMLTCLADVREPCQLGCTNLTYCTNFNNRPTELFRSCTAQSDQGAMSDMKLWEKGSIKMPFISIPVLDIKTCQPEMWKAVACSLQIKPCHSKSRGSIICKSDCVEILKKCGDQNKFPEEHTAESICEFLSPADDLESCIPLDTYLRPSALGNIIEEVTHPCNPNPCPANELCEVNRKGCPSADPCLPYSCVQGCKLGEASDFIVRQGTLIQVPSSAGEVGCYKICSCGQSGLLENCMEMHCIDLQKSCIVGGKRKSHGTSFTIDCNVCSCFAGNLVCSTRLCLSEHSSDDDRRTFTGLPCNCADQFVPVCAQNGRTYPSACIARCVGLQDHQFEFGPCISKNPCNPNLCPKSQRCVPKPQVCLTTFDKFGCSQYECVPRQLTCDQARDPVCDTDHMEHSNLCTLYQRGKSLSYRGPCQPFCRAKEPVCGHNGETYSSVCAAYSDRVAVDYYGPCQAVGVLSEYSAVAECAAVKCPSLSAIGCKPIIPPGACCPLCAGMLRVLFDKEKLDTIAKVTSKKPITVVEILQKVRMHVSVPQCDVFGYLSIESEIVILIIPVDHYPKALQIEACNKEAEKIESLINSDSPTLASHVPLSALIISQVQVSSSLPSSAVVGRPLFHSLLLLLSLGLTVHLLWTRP

Variants of: B1
Details: with reck_mouse Reck

| effect of a mutation on the interaction | Variant |
| --- | --- |
| disrupting interaction strength | V241A;F251A;L252A;K262A |
